Measured values taken from patent publication US20170029530A1 (AbbVie / Abbott, published 2017).

Experiments:
hDPEP1-His = target: T1, hDPEP1-His (human, UniProt P16444 17-385, limits assumed); assay: SPR, BIAcore 2000, antibody captured with anti-human capture kit
T1 construct: Neither the origin nor the limits of this protein are described; not shown: histidine tag
T1 sequence (looked up): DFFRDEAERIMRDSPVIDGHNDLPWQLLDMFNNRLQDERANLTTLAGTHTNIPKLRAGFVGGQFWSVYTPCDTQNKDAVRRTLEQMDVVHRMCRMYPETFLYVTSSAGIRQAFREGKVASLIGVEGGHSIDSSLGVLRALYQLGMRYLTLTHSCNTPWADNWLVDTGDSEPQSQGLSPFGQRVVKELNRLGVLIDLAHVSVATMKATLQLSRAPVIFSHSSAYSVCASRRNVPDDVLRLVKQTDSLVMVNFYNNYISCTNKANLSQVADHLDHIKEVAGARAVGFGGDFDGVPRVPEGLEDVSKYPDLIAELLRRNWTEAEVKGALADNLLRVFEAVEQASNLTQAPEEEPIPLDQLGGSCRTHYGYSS

[1] = target: T2, hDPEP2 ECD with histidine tag (human, UniProt Q9H4A9 33-463); assay: as above
T2 construct: also called hDPEP2-His; not shown: histidine tag

[2] = target: T3, rat DPEP3 ECD with histidine tag (rat, UniProt Q5U2X4 36-459, limits assumed); assay: as above
T3 construct: also called rDPEP3-His; ratDPEP3-His; not shown: histidine tag
T3 sequence: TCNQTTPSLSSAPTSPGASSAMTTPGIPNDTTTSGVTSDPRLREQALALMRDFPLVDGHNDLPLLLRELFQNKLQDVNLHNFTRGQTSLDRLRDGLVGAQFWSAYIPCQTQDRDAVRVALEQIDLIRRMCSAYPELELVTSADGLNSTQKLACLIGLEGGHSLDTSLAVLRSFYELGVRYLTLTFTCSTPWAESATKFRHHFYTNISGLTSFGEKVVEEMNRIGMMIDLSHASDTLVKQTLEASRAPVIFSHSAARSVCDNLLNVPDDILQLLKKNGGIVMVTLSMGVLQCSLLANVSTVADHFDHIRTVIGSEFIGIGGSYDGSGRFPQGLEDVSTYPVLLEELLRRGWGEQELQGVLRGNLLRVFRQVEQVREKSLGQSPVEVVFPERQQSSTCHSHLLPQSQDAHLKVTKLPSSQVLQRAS

mDPEP3 = target: T4, mDPEP3 (limits assumed); assay: ELISA, coated antigen
T4 construct: also called mouse DPEP3-His; mouse DPEP3 ECD with histidine tag
T4 single chain: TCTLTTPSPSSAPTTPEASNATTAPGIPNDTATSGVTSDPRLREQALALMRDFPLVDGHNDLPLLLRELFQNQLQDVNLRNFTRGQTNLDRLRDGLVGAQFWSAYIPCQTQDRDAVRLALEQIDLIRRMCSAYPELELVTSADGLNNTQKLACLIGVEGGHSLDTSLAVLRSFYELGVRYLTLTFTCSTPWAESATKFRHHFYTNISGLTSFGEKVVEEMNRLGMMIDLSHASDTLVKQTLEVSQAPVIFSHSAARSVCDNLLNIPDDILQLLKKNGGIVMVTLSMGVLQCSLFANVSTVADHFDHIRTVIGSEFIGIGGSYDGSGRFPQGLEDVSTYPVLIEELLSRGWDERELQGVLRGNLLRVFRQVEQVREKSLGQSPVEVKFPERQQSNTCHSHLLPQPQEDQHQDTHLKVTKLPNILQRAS

[3] = target: T2, hDPEP2 ECD with histidine tag; assay: ELISA, coated antigen
[4] = target: T3, rat DPEP3 ECD with histidine tag; assay: ELISA, coated antigen
[5] = target: T5, human DPEP3 (hDPEP3) protein on the cell surface (human, UniProt Q9H4B8 36-463, GPI anchor at the C-terminus after removal of the final 25 amino acids); assay: flow cytometry, HEK-293T cells overexpressing hDPEP3
T5 construct: The assay field says which
T5 sequence: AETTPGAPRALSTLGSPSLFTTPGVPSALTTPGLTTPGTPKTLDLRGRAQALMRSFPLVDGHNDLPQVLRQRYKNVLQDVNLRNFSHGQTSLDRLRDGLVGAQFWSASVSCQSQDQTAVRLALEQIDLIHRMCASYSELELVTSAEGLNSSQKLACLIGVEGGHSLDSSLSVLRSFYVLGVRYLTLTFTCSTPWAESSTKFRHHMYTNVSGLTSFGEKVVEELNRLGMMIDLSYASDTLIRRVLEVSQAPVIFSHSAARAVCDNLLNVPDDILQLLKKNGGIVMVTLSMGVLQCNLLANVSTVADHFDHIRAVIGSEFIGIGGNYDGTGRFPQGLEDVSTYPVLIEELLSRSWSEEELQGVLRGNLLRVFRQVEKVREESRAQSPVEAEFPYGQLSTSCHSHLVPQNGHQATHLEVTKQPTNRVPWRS
Method: The isolated cells were incubated for 30 mins. with anti-DPEP3 antibodies and washed twice in PBS/2% FCS. The cells were incubated for 15 mins. with 50 μL per sample AlexaFluor-647 labeled goat-anti-mouse IgG, Fc fragment specific secondary antibody diluted 1:200 in PBS/2% FCS, washed twice with PBS/2% FCS and re-suspended in PBS/2% FCS with DAPI ([…]). The cells were analyzed on a BD FACS Canto II flow cytometer with anti-DPEP3 antibodies.

T2 sequence (Q9H4A9 33-463): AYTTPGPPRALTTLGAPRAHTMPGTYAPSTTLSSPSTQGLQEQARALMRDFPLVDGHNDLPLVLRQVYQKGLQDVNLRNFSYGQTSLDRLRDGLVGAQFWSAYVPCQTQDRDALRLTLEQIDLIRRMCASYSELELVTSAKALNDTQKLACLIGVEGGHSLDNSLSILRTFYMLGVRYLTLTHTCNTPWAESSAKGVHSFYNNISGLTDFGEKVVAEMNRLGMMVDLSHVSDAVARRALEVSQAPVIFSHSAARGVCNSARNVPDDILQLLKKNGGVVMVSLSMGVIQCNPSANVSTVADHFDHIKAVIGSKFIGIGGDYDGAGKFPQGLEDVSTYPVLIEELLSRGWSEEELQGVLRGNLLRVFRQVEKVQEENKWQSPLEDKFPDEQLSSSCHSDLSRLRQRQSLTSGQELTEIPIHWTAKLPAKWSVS

B1: hSC34.14 humanized anti-DPEP3 antibody (antibody, human IgG1, kappa, V domains shown)
VH: QVQLVQSGAEVKKPGASVKVSCKASGYTFTDYYMHWVRQAPGQRLEWMGRVNPKKGGTTYNQKFEGRVTITRDTSASTAYMELSSLRSEDTAVYYCAMGIYYSYDASFDYWGQGTTVTVSS
VL: DIQMTQSPSSLSASVGDRVTITCRTSEHIYSYLAWYQQKPGKAPKLLIYNAKTLAEGVPSRFSGSGSGTDFTLTISSLQPEDFATYYCQHHYDTPYTFGQGTKLEIKR
notes: Human IgG1/kappa
hDPEP1-His
  binding result: no binding
[1]
  binding result: binds
[2]
  binding result: no binding

B2: SC34.36 (antibody, mouse IgG2a, V domains shown)
VH: QVQLQQPGSVLVRPGASVKLSCKASGYTFTSYWMHWVKQRPGQGLEWIGEISPTSGRPNYNAKFKGKATLTVDTSSSTAYVDLSSLTSEDSAVYYCAKGEGYYGKAFDYWGQGTTLTVSS
VL: DIQMTQTTSSLSASLGDRVTISCRASQDISNYLNWYQQKPDGTVKLLIYYTSRLHSGVPSRFSGSGSGTDYSLTISNLEQEDIATYFCQQGNTLPWTFGGGTKLEIK
mDPEP3
  binding result: no binding (tested: 1 ug/mL)
[3]
  binding result: no binding (tested: 1 ug/mL)
[4]
  binding result: no binding (tested: 1 ug/mL)
[5]
  binding result: binds
